Data from US20080153132.

Target: prothrombin, P00734

B1: genetic recombinant ecarin (protein)
chain: IILGSGNVNDYEVVYPQKVTALPKGAVQQPEQKYEDAMQYEFEVKGEPVVLHLEKNKELFSEDYSETHYSSDDREITTNPSVEDHCYYHGRIQNDAESTASISACNGLKGHFKLRGETYFIEPLKIPDSEAHAVYKYENIENEDEAPKMCGVTQDNWESDEPIKKTLGLIVPPHERKFEKKFIELVVVVDHSMVTKYNNDSTAIRTWIYEMLNTVNEIYLPFNIRVALVGLEFWCNGDLINVTSTADDTLHSFGEWRASDLLNRKRHDHAQLLTNVTLDHSTLGITFVYGMCKSDRSVELILDYSNITFNMAYIIAHEMGHSLGMLHDTKFCTCGAKPCIMFGKESIPPPKEFSSCSYDQYNKYLLKYNPKCILDPPLRKDIASPAVCGNEIWEEGEECDCGSPADCRNPCCDAATCKLKPGAECGNGECCDKCKIRKAGTECRPARDDCDVAEHCTGQSAECPRNEFQRNGQPCLNNSGYCYNGDCPIMLNQCIALFSPSATVAQDSCFQRNLQGSYYGYCTKEIGYYGKRFPCAPQDVKCGRLYCLDNSFKKNMRCKNDYSYADENKGIVEPGTKCEDGKVCINRKCVDVNTAY
- N-terminal amino acid sequence of the thrombin B chain after activation: the recombinant ecarin obtained according to the present invention specifically cleaves the peptide bond at the Arg-Ile site in prothrombin like snake venom derived ecarin
- activity to cleave S-2238 (thrombin enzymatic activity after 16 hours at 37 C with 2 U/mL recombinant ecarin): the activity to cleave S-2238 was detected in prothrombin when added with the recombinant ecarin
